According to the supplement of paper PMC10899765:

How the values were obtained:
Details in all cases: 20 nM; 72 h
MCF10A [1] = test: percent viability (nuclei count relative to siNT); higher = more viable cells
Protocol: (§1)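 After 72 h, cells were fixed and stained with Hoechst and anti-fibrillarin, and nucleoli per nucleus were counted with CellProfiler. Values are plate-adjusted percent effect for the one-nucleolus and 5+ nucleoli phenotypes, normalised to siNT (0%) and to the positive controls siNOL11 or siKIF11 (100%), as the mean of biological triplicates. Percent viability is the nuclei count relative to siNT.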

MCF10A [2] = test: one-nucleolus phenotype percent effect (relative to siNT 0% and siNOL11 100%); higher = more cells with one nucleolus (ribosome biogenesis inhibition)
Protocol: as §1

MCF10A [3] = test: 5+ nucleoli phenotype percent effect (relative to siNT 0% and siKIF11 100%); higher = more cells with five or more nucleoli
Protocol: as §1

| Sequence | percent viability (MCF10A [1]) [%] | one-nucleolus phenotype percent effect (MCF10A [2]) [%] | 5+ nucleoli phenotype percent effect (MCF10A [3]) [%] |
| --- | --- | --- | --- |
| UAAAGUAAAUAUGCACCAAAA [hsa-miR-559] | 153 | -21.4 | 24 |
| UGCUUAACCUUGCCCUCGAAA [hsa-miR-4804-3p] | 49.2 | 20.5 | -30.7 |
| CCAGGGAGGCUGGUUUGGAGGA [hsa-miR-6754-5p] | 38 | 22.6 | -21.9 |
| CUCUAGAGGGAAGCGCUUUCUG [hsa-miR-523-5p] | 54.8 | 5.46 | -3.36 |
| GCGGAAGGCGGAGCGGCGGA [hsa-miR-6125] | 155 | -24.1 | 25.5 |
| AGCUGUACCUGAAACCAAGCA [hsa-miR-4718] | 77.5 | 9.98 | -2.07 |
| CCAAUAUUACUGUGCUGCUUUA [hsa-miR-16-2-3p] | 121 | -17.8 | 40.6 |
| AUCAAGGAUCUUAAACUUUGCC [hsa-miR-561-5p] | 38.8 | 5.64 | -9.66 |
| AGGUUGUCUGUGAUGAGUUCG [hsa-miR-410-5p] | 39.7 | -12.5 | 75.2 |
| UCUCUCUGACUCCAUGGCA [hsa-miR-6817-3p] | 39.3 | 1.99 | 1.83 |
| AGCAGCAUUGUACAGGGCUAUGA [hsa-miR-103a-3p] | 36.3 | 15.6 | -29 |
| CCAGUGUGGCUCAGCGAG [hsa-miR-4302] | 28.8 | 18.9 | -22.9 |
| UAAAAACUGCAAUUACUUUUA [hsa-miR-548aj-3p] | 115 | -18.5 | 35.3 |
| AGGGGCUGGCUUUCCUCUGGUC [hsa-miR-185-3p] | 22.6 | 49.9 | -3.46 |
| AUGGAGAUAGAUAUAGAAAU [hsa-miR-620] | 62.9 | 24 | -31.1 |
| GAACGCCUGUUCUUGCCAGGUGG [hsa-miR-614] | 72.8 | -10.6 | -0.465 |
| CAUGCCUUGAGUGUAGGACCGU [hsa-miR-532-5p] | 19.5 | 19.3 | -20.1 |
| AAGCUCAGGUUUGAGAACUGCUGA [hsa-miR-6854-5p] | 57.3 | 18.3 | -24.5 |
| CAAUGUGAUCUUUUGGAUGUA [hsa-miR-8066] | 30.2 | 56.9 | -37.9 |
| AUACCCAUAGCUUAGCUCCCA [hsa-miR-5591-3p] | 16.2 | 47 | -19.5 |
| UGGGGCUCAGCGAGUUU [hsa-miR-4283] | 17.3 | 24.3 | -10.7 |
| AGGCAGUGUAGUUAGCUGAUUGC [hsa-miR-34c-5p] | 13.2 | 38.8 | -6.79 |
| UUGGGGUGGUCGGCCCUGGAG [hsa-miR-6737-5p] | 7.13 | 48.7 | -19.8 |
| UGAGGUAGUAGGUUGUAUAGUU [hsa-let-7a-5p] | 29.1 | -24.4 | 61.1 |
